In patent US20180022815A1 one finds percent of H929 cells stained ("efficiency") data, which are given here for 1 molecule.

For this experiment, the target named is BCMA and CD138 on H929 cells. As to the kind of experiment: flow cytometry on H929 cells, sheep antihuman Ig-FITC secondary.

B1: bi-specific CD138/BCMA-IgG (dual CD138 scFv - 218S linker - BCMA scFv fused with a human IgG Fc) (bispecific antibody, not shown: a dimerising Fc or GST)
chain: DIQMTQSTSSLSASLGDRVTISCSASQGINNYLNWYQQKPDGTVELLIYYTSTLQSGVPSRFSGSGSGTDYSLTISNLEPEDIGTYYCQQYSKLPRTFGGGTKLEIKGSTSGSGKPGSSEGSTKGQVQLQQSGSELMMPGASVKISCKATGYTFSNYWIEWVKQRPGHGLEWIGEILPGTGRTIYNEKFKGKATFTADISSNTVQMQLSSLTSEDSAVYYCARRDYYGNFYYAMDYWGQGTSVTVSSGSTSGSGKPGSSEGSTKDIVLTQSPASLAVSLGDRATINCRASESVSVIGAHLIHWYQQKPGQPPKLLIYLASNLETGVPARFSGSGSGTDFTLTISSLQAEDAAIYYCLQSRIFPRTFGQGTKLEIKGSTSGSGKPGSSEGSTKGQVQLVQSGSELKKPGASVKVSCKASGYTFTDYSIQWVRQAPGQGLEWMGWIQTETREPAYAYDFRGRFVFSLDTSVSTAYLQISSLKAEDTAVYYCALDYSYAMDYWGQGTLVTVSS
Take B1: the percent of H929 cells stained ("efficiency") was found to be 84.8%.
